Measurements: US10654918B2, “Inflammatory disease diagnosis and methods of treatment using down-regulators of lipopolysaccharide-responsive beige-like anchor” (University of South Florida, priority 2013, dated 2020)

Columns and labels:
Assay type in all cases: cell-based, human
A549 cells = test: Western blot of A549 and A549 pLAsiGFP cells treated with LPS; settings: for TLR4 levels (Western blot): vs untransfected A549 cells
Description: (§1) FIGS. 4A-B are a blot and graph showing knockdown of LRBA increases the TNFα levels in A549 cells (adenocarcinomic human alveolar basal epithelial cells). A549 cells and A549 pLAsiGFP cells (stably transfected with shRNA plasmid against LRBA) were treated with LPS (1 μg/ml). The TNFα concentrations were detected by Western blot. Cells were cultured in 6-well plates and stimulated with LPS (1 μg/ml) for different time as shown, then lysed with RIPA buffer. Western blots were carried out. TNFα antibody (sc-1351. Santa Cruz Biotechnology, Santa Cruz, USA) was used at 1:500 ratio and incubated at 4° C. overnight. BioRad ChemiDoc XRS and Quantity One software were used to acquire gel image and measure band relative intensity. (A) Western blot. 1. A549 No LPS, 2. A549 LPS 30 min, 3. A549 LPS 1 hr, 4. A549 LPS 2 h, 5. A549 LPS 4 h, 6. A549 LPS 24 h, 7. A549 pLAsiGFP LPS 2 h, 8. A549 pLAsiGFP LPS 4 h, 9. A549 pLAsiGFP LPS 24 h. (B) Band intensity quantification from A.
as §1, with “FIG. 17(A)-(B)” for “FIGS. 4A-B”, “series of graphs” for “blot and graph”, “TLR4” for “TNFα”, “cells.” for “cells (adenocarcinomic human alveolar basal epithelial cells).”
FIGS. 31(A) and (B) are a blot and graph showing knockdown of LRBA decreases the total NFκB levels in A549 cells. A549 LIRII cells (stably transfected with pLRBA-VHS) and A549 pLAsiGFP cells (stably transfected with shRNA plasmid against LRBA) were treated with LPS (1 μg/ml). The NFκB concentrations were detected by Western blot. Cells were cultured in 6-well plates and stimulated with LPS (1 μg/ml) for different time as shown, then lysed with RIPA buffer. Western blots were carried out. NF-κB2 p100/p52 Antibody #4882 (Cell Signaling Technology, Danvers, Mass., USA) was used at 1:500 ratio and incubated at 4° C. overnight. BioRad ChemiDoc XRS and Quantity One software were used to acquire gel image and measure band relative intensity. A. Western blot. B. Band intensity quantification from A.

[1] = test system: MAPKs [p42/44, p38 and Jun N-terminal kinase (JNK)]; test: MAPK Western blot in Raji and Raji9 cells; settings: LRBA KD Raji cells, LPS
Description: FIGS. 47(A) and (B). Knockdown of LRBA deregulates MAPKs. Knockdown of LRBA upregulates p38 and JNK but downregulates p42/44. Half million of Raji or Raji9 cells were put in a well in a 6 well plate. After 24 hr, cells were treated with or without LPS for the time as indicated. 200 μl RIPA buffer with protease inhibitors and PMSF. (A) Western blot of cells was performed. 30 μl of cell extracts were loaded to ach well. Phosphorylated protein levels were normalized to β-Actin shown as the numbers between the two blots. (B) curves based on the Western blots. Quantity One software was used to quantify the levels.
Like NF-κB, the mitogen-activated protein kinases (MAPKs) act as funnels to collect many stress-activated signals but function as bottle necks to filter and process these signals, and then have many diverse targets(26). Specifically, MAPKs are critical downstream hubs of the TLR4/LPS signal transduction(27) and may be affected by LRBA deficiency. The expression and activation of the three major MAPKs [p42/44, p38 and Jun N-terminal kinase (JNK)] were examined in Raji cells. […] The phospho-p42/44 measured by flow cytometry intracellular staining also is decreased (data not shown). […] The Drosophila MAPK and JNK have 82% and 78% identities with their human orthologues, respectively.

Raji and Raji9 cells = test: Annexin V apoptosis assay after infection with adenoviruses or Gram-negative bacteria; settings: 24 hrs after infection with adenoviruses or Gram-negative bacteria
Description: FIGS. 49(A) through (B) are graphs showing cells with LRBA knockdown cannot fight viral and bacterial infections efficiently. Half million of Raji and Raji9 cells were infected with adenoviruses at 100 multiplicity of infection (MOI) or 50 μl of Gram-negative bacteria from overnight culture. After 24 hours of incubation at 37° C., Apoptosis was detected by Annexin V-PE and 7-AAD. Cells that were double negative (left lower quadrant) were viable, Annexin only positive cells (right lower quadrant) were early phase of apoptosis or other cell death, and double positive cells (right upper quadrant) were end stage apoptosis or dead. ****p<9E-05, *p<0.007.
In order for pathogens to efficiently spread to neighboring cells and evade the immune cells, and/or gain nutrients, one prominent strategy of many bacterial pathogens is to cause host cell death (31). On another hand, the host cell, first will try to kill the evaded pathogens. As such, cell death may be used as a hallmark of immunodeficiency. […] It is hypothesized that Raji cells with LRBA knockdown can serve as an immunodeficiency in vitro model, i.e. they cannot fight pathogens efficiently when compared to wild type cells, manifested as more cell death.

B1: LRBA shRNA: shRNA plasmid against LRBA; targeted LRBA sequence SEQ ID No. 15 GGGATATTGTAGAAACTGTCTTT (nucleic acid)
sense: GGGATATTGTAGAAACTGTCTTTTTCAAGAGAAAAGACAGTTTCTACAATATCCCTTTTTT
antisense: CCCTATAACATCTTTGACAGAAAAAGTTCTCTTTTCTGTCAAAGATGTTATAGGGAAAAAA
TLR4 levels (Western blot) (A549 cells; 2 h and 4 h after LPS stimulation (1 μg/ml)): increases
TLR4 levels (Western blot) (A549 cells; 24 h after LPS): no difference
total NFκB levels (Western blot) (A549 cells; LPS 1 μg/ml, A549 pLAsiGFP cells): decreases
TNFα levels (Western blot) (A549 cells; LPS 1 μg/ml, A549 pLAsiGFP vs A549): increases
JNK kinase activity [1]: increased
p38 kinase activity [1]: increased
p42/44 kinase activity [1]: reduced
dead cells or apoptotic cells (Annexin V-PE, 7-AAD) (Raji and Raji9 cells): more dead cells or apoptotic cells
